Reference: US20210070868A1 (published 2021)

Target: Hepatocyte Growth Factor (HGF) (UniProt P14210 32-728)
Assay: ELISA

Sequence of Hepatocyte Growth Factor (HGF) (P14210 32-728): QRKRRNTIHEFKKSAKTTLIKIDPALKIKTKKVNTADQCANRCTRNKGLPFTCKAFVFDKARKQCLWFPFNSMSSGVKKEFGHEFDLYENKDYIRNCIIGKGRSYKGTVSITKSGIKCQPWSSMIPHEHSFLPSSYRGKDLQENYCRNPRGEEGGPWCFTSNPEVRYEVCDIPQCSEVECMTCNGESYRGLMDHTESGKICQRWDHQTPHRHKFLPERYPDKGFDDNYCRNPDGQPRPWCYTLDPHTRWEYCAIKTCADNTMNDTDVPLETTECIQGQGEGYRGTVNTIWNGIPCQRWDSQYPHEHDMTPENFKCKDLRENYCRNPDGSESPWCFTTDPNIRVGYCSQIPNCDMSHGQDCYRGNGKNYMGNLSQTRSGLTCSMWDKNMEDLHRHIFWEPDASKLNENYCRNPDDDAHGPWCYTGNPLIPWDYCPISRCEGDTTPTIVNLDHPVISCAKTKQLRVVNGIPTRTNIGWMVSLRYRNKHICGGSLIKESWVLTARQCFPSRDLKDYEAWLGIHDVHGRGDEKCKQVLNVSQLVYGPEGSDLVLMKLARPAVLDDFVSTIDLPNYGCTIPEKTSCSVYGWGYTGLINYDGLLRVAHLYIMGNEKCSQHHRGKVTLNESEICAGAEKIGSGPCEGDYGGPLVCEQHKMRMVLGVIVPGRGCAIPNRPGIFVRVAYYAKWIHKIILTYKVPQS

B1: decoyMET^K842E (receptor)
chain: ECKEALAKSEMNVNMKYQLPNFTAETPIQNVILHEHHIFLGATNYIYVLNEEDLQKVAEYKTGPVLEHPDCFPCQDCSSKANLSGGVWKDNINMALVVDTYYDDQLISCGSVNRGTCQRHVFPHNHTADIQSEVHCIFSPQIEEPSQCPDCVVSALGAKVLSSVKDRFINFFVGNTINSSYFPDHPLHSISVRRLKETKDGFMFLTDQSYIDVLPEFRDSYPIKYVHAFESNNFIYFLTVQRETLDAQTFHTRIIRFCSINSGLHSYMEMPLECILTEKRKKRSTKKEVFNILQAAYVSKPGAQLARQIGASLNDDILFGVFAQSKPDSAEPMDRSAMCAFPIKYVNDFFNKIVNKNNVRCLQHFYGPNHEHCFNRTLLRNSSGCEARRDEYRTEFTTALQRVDLFMGQFSEVLLTSISTFIKGDLTIANLGTSEGRFMQVVVSRSGPSTPHVNFLLDSHPVSPEVIVEHTLNQNGYTLVITGKKITKIPLNGLGCRHFQSCSQCLSAPPFVQCGWCHDKCVRSEECLSGTWTQQICLPAIYKVFPNSAPLEGGTRLTICGWDFGFRRNNKFDLKKTRVLLGNESCTLTLSESTMNTLKCTVGPAMNKHFNMSIIISNGHGTTQYSTFSYVDPVITSISPKYGPMAGGTLLTLTGNYLNSGNSRHISIGGKTCTLKSVSNSILECYTPAQTISTEFAVKLKIDLANRETSIFSYREDPIVYEIHPTKSFISGGSTITGVGKNLNSVSVPRMVINVHEAGRNFTVACQHRSNSEIICCTTPSLQQLNLQLPLKTKAFFMLDGILSKYFDLIYVHNPVFEPFEKPVMISMGNENVLEIKGNDIDPEAVKGEVLKVGNKSCENIHLHSEAVLCTVPNDLLKLNSELNIEWKQAISSTVLGKVIVQPDQNFTASGAAWSHPQFEKGAAWSHPQFEKGAAWSHPQFEKGAAHHHHHH
- Kd: 0.251 nM
